Assay results taken from US12427210B2, “Compounds comprising a fibroblast activation protein ligand and use thereof” (priority 2019, dated 2025).
Each block holds one binder with its values, some of them ahead of it.

Legend:
Test in all cases: radioligand displacement, compound at 10 µM
Conditions in all cases: remark: other sources report otherwise
[1] = molecular target: T1, 5-HT1A (h) (human), P08908
T1 chain: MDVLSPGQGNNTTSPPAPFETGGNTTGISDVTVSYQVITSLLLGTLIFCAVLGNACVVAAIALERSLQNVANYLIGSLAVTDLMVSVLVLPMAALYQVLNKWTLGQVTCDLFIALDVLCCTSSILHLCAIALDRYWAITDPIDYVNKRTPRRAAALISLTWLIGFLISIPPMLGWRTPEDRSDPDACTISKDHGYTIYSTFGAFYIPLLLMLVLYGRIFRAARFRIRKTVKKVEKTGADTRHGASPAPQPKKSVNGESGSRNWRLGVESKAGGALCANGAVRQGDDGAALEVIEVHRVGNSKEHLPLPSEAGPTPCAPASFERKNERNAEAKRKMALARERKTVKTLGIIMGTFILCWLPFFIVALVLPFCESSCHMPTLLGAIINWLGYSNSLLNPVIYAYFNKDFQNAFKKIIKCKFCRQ

[2] = molecular target: 5-HT2B (h) (human), P41595
Chain of 5-HT2B (h) (human), P41595 (P41595 whole entry): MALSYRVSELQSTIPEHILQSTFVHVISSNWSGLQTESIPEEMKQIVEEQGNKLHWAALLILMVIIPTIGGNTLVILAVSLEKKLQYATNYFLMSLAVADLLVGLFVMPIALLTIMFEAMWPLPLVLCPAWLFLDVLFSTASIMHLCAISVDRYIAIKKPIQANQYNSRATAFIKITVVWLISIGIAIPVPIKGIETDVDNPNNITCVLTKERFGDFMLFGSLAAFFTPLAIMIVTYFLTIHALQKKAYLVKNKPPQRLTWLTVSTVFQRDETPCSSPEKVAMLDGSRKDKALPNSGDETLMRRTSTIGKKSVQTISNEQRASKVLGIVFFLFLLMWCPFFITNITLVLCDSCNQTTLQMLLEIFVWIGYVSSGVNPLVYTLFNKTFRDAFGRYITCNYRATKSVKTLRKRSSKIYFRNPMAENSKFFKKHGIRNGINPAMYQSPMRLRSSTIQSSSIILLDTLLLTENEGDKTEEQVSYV

[3] = molecular target: T2, delta (DOP) (h) (human), P41143
T2 chain: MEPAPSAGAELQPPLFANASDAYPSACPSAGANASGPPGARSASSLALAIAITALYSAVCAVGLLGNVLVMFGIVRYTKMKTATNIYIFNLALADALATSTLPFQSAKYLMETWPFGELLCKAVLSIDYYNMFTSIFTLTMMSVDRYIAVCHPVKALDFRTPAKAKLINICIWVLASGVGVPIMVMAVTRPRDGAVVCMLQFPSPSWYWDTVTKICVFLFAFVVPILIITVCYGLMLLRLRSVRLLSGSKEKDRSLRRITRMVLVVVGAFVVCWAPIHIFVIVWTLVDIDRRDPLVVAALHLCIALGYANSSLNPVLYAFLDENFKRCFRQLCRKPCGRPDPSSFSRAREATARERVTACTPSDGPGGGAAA

[4] = molecular target: 5-HT transporter (h) (human), P31645
H1 (h) (human), P35367 = molecular target: H1 (h) (human), P35367
Chain of H1 (h) (human), P35367 (P35367 whole entry): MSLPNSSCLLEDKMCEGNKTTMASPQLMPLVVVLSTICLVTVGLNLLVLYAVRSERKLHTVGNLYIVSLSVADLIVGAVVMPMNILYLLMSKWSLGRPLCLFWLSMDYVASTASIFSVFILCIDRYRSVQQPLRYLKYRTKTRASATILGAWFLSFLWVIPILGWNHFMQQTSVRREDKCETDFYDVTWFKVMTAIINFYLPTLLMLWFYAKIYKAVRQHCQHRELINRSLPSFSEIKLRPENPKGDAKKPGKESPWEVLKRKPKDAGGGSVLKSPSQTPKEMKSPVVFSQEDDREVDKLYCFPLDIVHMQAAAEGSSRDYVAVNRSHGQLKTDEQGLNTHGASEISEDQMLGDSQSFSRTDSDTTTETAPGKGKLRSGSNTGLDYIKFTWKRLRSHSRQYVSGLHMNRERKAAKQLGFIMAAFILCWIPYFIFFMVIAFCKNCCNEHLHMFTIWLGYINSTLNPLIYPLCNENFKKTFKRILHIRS

[5] = molecular target: T3, dopamine transporter (h) (human), Q01959
T3 chain: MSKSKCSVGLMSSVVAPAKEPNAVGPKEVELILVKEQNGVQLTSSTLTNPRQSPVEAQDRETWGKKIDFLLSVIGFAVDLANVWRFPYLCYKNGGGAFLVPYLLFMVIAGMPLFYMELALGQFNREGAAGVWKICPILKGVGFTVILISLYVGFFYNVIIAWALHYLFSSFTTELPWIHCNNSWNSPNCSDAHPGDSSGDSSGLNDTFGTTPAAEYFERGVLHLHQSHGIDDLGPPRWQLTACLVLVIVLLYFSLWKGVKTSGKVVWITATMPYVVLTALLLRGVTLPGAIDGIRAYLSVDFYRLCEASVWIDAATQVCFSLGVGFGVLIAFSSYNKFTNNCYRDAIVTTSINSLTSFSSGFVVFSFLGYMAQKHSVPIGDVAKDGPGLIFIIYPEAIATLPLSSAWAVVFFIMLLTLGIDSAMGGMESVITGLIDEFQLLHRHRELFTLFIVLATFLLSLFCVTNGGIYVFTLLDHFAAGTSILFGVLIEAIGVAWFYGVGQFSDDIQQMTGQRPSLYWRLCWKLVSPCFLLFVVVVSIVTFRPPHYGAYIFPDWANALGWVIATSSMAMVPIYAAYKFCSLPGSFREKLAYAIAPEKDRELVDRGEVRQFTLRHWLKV

GR (h) (human), P04150 = molecular target: T4, GR (h) (human), P04150
T4 chain: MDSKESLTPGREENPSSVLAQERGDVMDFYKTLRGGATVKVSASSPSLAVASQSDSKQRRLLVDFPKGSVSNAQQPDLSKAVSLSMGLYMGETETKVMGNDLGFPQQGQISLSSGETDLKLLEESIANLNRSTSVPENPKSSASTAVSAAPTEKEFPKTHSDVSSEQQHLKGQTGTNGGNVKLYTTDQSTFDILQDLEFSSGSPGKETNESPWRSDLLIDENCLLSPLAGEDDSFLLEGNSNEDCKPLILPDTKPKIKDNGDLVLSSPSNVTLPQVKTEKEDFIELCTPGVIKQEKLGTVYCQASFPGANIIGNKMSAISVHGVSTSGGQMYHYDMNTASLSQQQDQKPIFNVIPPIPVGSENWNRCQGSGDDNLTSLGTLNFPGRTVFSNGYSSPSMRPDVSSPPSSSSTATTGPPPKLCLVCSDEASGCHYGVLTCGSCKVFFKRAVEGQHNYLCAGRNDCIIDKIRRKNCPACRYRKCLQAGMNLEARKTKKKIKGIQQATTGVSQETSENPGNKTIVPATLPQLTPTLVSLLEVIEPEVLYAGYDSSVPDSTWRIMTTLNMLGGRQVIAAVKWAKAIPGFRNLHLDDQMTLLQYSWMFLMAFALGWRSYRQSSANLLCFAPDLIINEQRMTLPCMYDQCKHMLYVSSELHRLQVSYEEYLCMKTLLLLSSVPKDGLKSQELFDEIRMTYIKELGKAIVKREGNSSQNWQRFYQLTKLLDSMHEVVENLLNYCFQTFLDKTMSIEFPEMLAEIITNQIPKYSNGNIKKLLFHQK

[6] = molecular target: beta 1 (h) (human), P08588
CB2 (h) (human), P34972 = molecular target: CB2 (h) (human), P34972
Chain of CB2 (h) (human), P34972 (P34972 whole entry): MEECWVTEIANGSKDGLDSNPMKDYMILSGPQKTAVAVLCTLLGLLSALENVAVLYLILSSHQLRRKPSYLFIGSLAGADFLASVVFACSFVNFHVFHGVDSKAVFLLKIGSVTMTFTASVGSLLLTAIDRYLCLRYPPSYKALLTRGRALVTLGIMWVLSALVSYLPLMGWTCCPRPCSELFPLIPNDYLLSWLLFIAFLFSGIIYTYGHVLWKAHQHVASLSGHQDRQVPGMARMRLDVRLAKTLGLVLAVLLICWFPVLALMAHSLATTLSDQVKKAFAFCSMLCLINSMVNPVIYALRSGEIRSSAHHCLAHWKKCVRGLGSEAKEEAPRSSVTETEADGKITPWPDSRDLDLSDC

% Inhibition of Specific Binding [1]: -5% | % Inhibition of Specific Binding [2]: 3% | % Inhibition of Specific Binding [3]: 1% | % Inhibition of Specific Binding [4]: -8% | % Inhibition of Specific Binding (H1 (h) (human), P35367): 4% | % Inhibition of Specific Binding [5]: 7% | % Inhibition of Specific Binding (GR (h) (human), P04150): 0% | % Inhibition of Specific Binding [6]: -13% | % Inhibition of Specific Binding (CB2 (h) (human), P34972): -5%
B1: Hex-[Cys(tMeBn(DOTA-AET))-Pro-Pro-Thr-Gln-Phe-Cys]-OH (3BP-3554) (peptide)
peptide: CPPTQFC
modifications: here or on the partner: N-terminal hexanoyl (Hex); Cys1 and Cys7 cyclised through tMeBn carrying DOTA-AET; free C-terminal acid (-OH)

% Inhibition of Specific Binding [1]: -3% | % Inhibition of Specific Binding [2]: 2% | % Inhibition of Specific Binding [3]: 0% | % Inhibition of Specific Binding [4]: -3% | % Inhibition of Specific Binding (H1 (h) (human), P35367): 11% | % Inhibition of Specific Binding [5]: 12% | % Inhibition of Specific Binding (GR (h) (human), P04150): -2% | % Inhibition of Specific Binding [6]: 4% | % Inhibition of Specific Binding (CB2 (h) (human), P34972): 2%
B2: Hex-[Cys(tMeBn(DOTA-PP))-Pro-Pro-Thr-Gln-Phe-Cys]-Asp-NH2 (3BP-3407) (peptide)
peptide: CPPTQFCD
modifications: here or on the partner: N-terminal hexanoyl (Hex); Cys1 and Cys7 cyclised through tMeBn carrying DOTA-PP; C-terminal amide
